Columns and labels:
p-NP-C4 = settings: 35 °C
gfPET = assay: Proxy for plastic degradation [Released monomer concentration (HPLC/LC-MS) (TPA+MHET)]; settings: pH 8

B1: unnamed (protein)
chain: MNFPRASRLMQAAVLGGLMAVSAAATAQTNPYARGPNPTAASLEASAGPFTVRSFTVSRPSGYGAGTVYYPTNAGGTVGAIAIVPGYTARQSSIKWWGPRLASHGFVVITIDTNSTLDQPSSRSSQQMAALRQVASLNGTSSSPIYGKVDTARMGVMGWSMGGGGSLISAANNPSLKAAAPQAPWDSSTNFSSVTVPTLIFACENDSIAPVNSSALPIYDSMSRNAKQFLEINGGSHSCANSGNSNQALIGKKGVAWMKRFMDNDTRYSTFACENPNSTRVSDFRTANCS
p-NP-C4; part of the chain shown
  Km: 240 µM
  kcat: 15.1 s⁻¹
  kcat/Km: 62900 s⁻¹ M⁻¹
gfPET; 35 °C, 1 h, part of the chain shown
  Proxy for plastic degradation: 17 µM
gfPET; 35 °C, 3 h, part of the chain shown
  Proxy for plastic degradation: 38 µM
gfPET; 35 °C, 5 h, part of the chain shown
  Proxy for plastic degradation: 45 µM
gfPET; 35 °C, 7 h, part of the chain shown
  Proxy for plastic degradation: 55 µM
gfPET; 35 °C, 10 h, part of the chain shown
  Proxy for plastic degradation: 77 µM
gfPET; 50 °C, 1 h, part of the chain shown
  Proxy for plastic degradation: 10 µM
gfPET; 50 °C, 3 h, part of the chain shown
  Proxy for plastic degradation: 25 µM
gfPET; 50 °C, 5 h, part of the chain shown
  Proxy for plastic degradation: 50 µM
gfPET; 50 °C, 7 h, part of the chain shown
  Proxy for plastic degradation: 70 µM
gfPET; 50 °C, 10 h, part of the chain shown
  Proxy for plastic degradation: 209 µM

B2: unnamed (protein)
chain: MDGVLWRVRTAALMAALLALAAWALVWASPSVEAQSNPYQRGPNPTRSALTADGPFSVATYTVSRLSVSGFGGGVIYYPTGTSLTFGGIAMSPGYTADASSLAWLGRRLASHGFVVLVINTNSRFDYPDSRASQLSAALNYLRTSSPSAVRARLDANRLAVAGHSMGGGGTLRIAEQNPSLKAAVPLTPWHTDKTFNTSVPVLIVGAEADTVAPVSQHAIPFYQNLPSTTPKVYVELDNASHFAPNSNNAAISVYTISWMKLWVDNDTRYRQFLCNVNDPALSDFRTNNRHCQ
p-NP-C4
  Km: 300 µM
  kcat: 21.6 s⁻¹
  kcat/Km: 71900 s⁻¹ M⁻¹
gfPET; 35 °C, 1 h
  Proxy for plastic degradation: 5 µM
gfPET; 35 °C, 3 h
  Proxy for plastic degradation: 14 µM
gfPET; 35 °C, 5 h
  Proxy for plastic degradation: 39 µM
gfPET; 35 °C, 7 h
  Proxy for plastic degradation: 95 µM
gfPET; 35 °C, 10 h
  Proxy for plastic degradation: 182 µM
gfPET; 50 °C, 1 h
  Proxy for plastic degradation: 480 µM
gfPET; 50 °C, 3 h
  Proxy for plastic degradation: 1470 µM
gfPET; 50 °C, 5 h
  Proxy for plastic degradation: 2380 µM
gfPET; 50 °C, 7 h
  Proxy for plastic degradation: 3250 µM
gfPET; 50 °C, 10 h
  Proxy for plastic degradation: 4130 µM

Reference: the PETadex activity labels (doi:10.1021/acs.est.4c01495)
